In the supplement of paper PMC10126150:
± gives the standard deviation of the averaged measurements.

Tested on: ATP
Assay: switch fluorescence ratio, 500 uM ATP over buffer (Cy3 cluster intensity, sum of 5 cycles each) (fold (ratio)); higher = stronger signal-on switching upon ATP binding; sequences stand for … in TCGTCGGCAGCGTCAGATGTGTATAAGAGACAGTTTTTTTTTTTTTTTTTTTTTTTTT…TC
Settings: aptamer strand: ATP DNA aptamer (quencher-CACCTGGGGGAGTATTGCGGAGGAAGG + anchor), 100 nM annealed; ATP concentration: 500 uM
Summary of the method: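 After annealing to 100 nM quencher-labelled ATP aptamer, Cy3-labelled switching-strand clusters on a modified Illumina MiSeq flow-cell were imaged in selection buffer. A second image followed after 15 min with 500 uM ATP at 22 °C, and five such buffer/ATP cycles were done, each separated by NaOH stripping and re-annealing. The fluorescence ratio, averaged per switch-domain sequence, is summed target-cycle over summed buffer-cycle Cy3 intensity per cluster, with clusters outside 100-1000 RFU excluded.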
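Note: ATP exposure 15 min at 22 °C before imaging.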

ATGTTGGGCA and AAAAGATAAA are within error of each other in switch fluorescence ratio: 1.01 ± 0.028 for the first, 0.977 ± 0.023 for the second.

TGCCGAGATC and GTTTTGGGAA are within error of each other in switch fluorescence ratio: 1 ± 0.013 for the first, 1.02 ± 0.026 for the second.

CGCGTGGCGG and CAGGGGTTTG are within error of each other in switch fluorescence ratio: 0.999 ± 0.024 for the first, 1 ± 0.051 for the second.

ATGGTTGGGG and AATTATTCGA are within error of each other in switch fluorescence ratio: 0.994 ± 0.031 for the first, 1.02 ± 0.011 for the second.

TCCTGATTGA and GGTGCGCATG are within error of each other in switch fluorescence ratio: 0.984 ± 0.063 for the first, 0.994 ± 0.011 for the second.

Going from CCTGATAATT to TGGAATGCGG, the switch fluorescence ratio falls from 1.02 ± 0.02 to 0.99792 ± 0.00061.

TTATCTTGGT and ACTTGTAAAC are within error of each other in switch fluorescence ratio: 1 ± 0.015 for the first, 1.01 ± 0.025 for the second.

AGTGGTGGCG and CCGTGGGGTA are within error of each other in switch fluorescence ratio: 0.9 ± 0.082 for the first, 0.974 ± 0.031 for the second.

GTGATCTGGG and GGTGATGGTT are within error of each other in switch fluorescence ratio: 0.9689 ± 0.0053 for the first, 0.986 ± 0.047 for the second.

Compared with TTTAAAGGCC, AGGAATTGCT is higher in switch fluorescence ratio: 0.9682 ± 0.00099 for the first, 1.03 ± 0.018 for the second.

ATCGAATAGG and GTTCAAATCA are within error of each other in switch fluorescence ratio: 0.9872 ± 0.0022 for the first, 0.997 ± 0.047 for the second.

CAGGGTGCTA and CGGGAGGGAC are within error of each other in switch fluorescence ratio: 1 ± 0.075 for the first, 0.994 ± 0.057 for the second.

GACGGGGCGG and TGCTGGGGCT are within error of each other in switch fluorescence ratio: 0.994 ± 0.031 for the first, 0.9847 ± 0.0033 for the second.

ATAGTACTCG and ACGTGGGGTA are within error of each other in switch fluorescence ratio: 1.06 ± 0.057 for the first, 1.04 ± 0.022 for the second.

TCAAGTTACA and GAGGGAATTA are within error of each other in switch fluorescence ratio: 1.078 ± 0.0041 for the first, 1.06 ± 0.11 for the second.

AATGTTCGTT and GGGGATTTGG are within error of each other in switch fluorescence ratio: 1.01 ± 0.014 for the first, 0.992 ± 0.018 for the second.

First: AAATTCGACG
Second: TTTGAGAATC
The switch fluorescence ratio of the first is higher: 1.05 ± 0.046 for the first, 0.977 ± 0.017 for the second.

TAATCGCGGC and GCCTATTGTT are within error of each other in switch fluorescence ratio: 1.31 ± 0.35 for the first, 0.983 ± 0.02 for the second.

GAGCCGGGCC and GAATATAATG are within error of each other in switch fluorescence ratio: 0.99 ± 0.023 for the first, 0.978 ± 0.032 for the second.

Going from AGGGAACTGT to TGAGGCAGGG, the switch fluorescence ratio rises from 0.97 ± 0.056 to 1.037 ± 0.0042.

ATTTGACTTA and CGGTTTAAGC are within error of each other in switch fluorescence ratio: 1.03 ± 0.015 for the first, 0.994 ± 0.046 for the second.

TTGATTTCGA and CCAAGTCCTG are within error of each other in switch fluorescence ratio: 1.06 ± 0.019 for the first, 0.97 ± 0.092 for the second.

TGGAAAATTT and AGATGGGCAG are within error of each other in switch fluorescence ratio: 1.01 ± 0.0059 for the first, 0.996 ± 0.012 for the second.

TGAGTGTTTT and CACGGGGGAT are within error of each other in switch fluorescence ratio: 0.997 ± 0.027 for the first, 1.03 ± 0.011 for the second.

GGGAAGGGGC and CAGGGGGATG are within error of each other in switch fluorescence ratio: 1.02 ± 0.018 for the first, 1.01 ± 0.032 for the second.

GAGTTGTCTT and TTCGGGGCGG are within error of each other in switch fluorescence ratio: 0.9538 ± 0.0062 for the first, 0.934 ± 0.071 for the second.

GGAATTATCG and ACACCGGTTA are within error of each other in switch fluorescence ratio: 0.98808 ± 0.00049 for the first, 1.01 ± 0.035 for the second.

ATTCGATTTC and AAGGGCTGTG are within error of each other in switch fluorescence ratio: 1 ± 0.033 for the first, 0.9845 ± 0.007 for the second.

ACACGGGTTA and TTATCAAAGC are within error of each other in switch fluorescence ratio: 1 ± 0.047 for the first, 0.992 ± 0.033 for the second.

AATTTTTCTT and TTTTATCAA are within error of each other in switch fluorescence ratio: 0.98 ± 0.05 for the first, 1.07 ± 0.12 for the second.

Going from AAGTGGTGCA to TTGCGTGTTG, the switch fluorescence ratio rises from 0.974 ± 0.013 to 1.01 ± 0.019.

Compared with TGTTGTTACC, CCCCCGGGGG is higher in switch fluorescence ratio: 1.04 ± 0.022 for the first, 1.91 ± 0.15 for the second.

TGGGGAATCG and GCTGGAGGAC are within error of each other in switch fluorescence ratio: 1.01 ± 0.046 for the first, 0.996 ± 0.032 for the second.

CATTCGTTGA and ATAGATTAGG are within error of each other in switch fluorescence ratio: 1.05 ± 0.08 for the first, 0.9854 ± 0.0092 for the second.

TTTTATAGAA and TTTGAGTGTG are within error of each other in switch fluorescence ratio: 1.0092 ± 0.00051 for the first, 0.997 ± 0.03 for the second.

GCTGATTTGT and AGAAGTTTTC are within error of each other in switch fluorescence ratio: 0.989 ± 0.038 for the first, 0.973 ± 0.038 for the second.

GTTGGGTTAT and ATGGGCGTTG are within error of each other in switch fluorescence ratio: 0.982 ± 0.017 for the first, 0.9658 ± 0.0037 for the second.

Compared with CATCTCTTGC, ATCTGTGGGG is lower in switch fluorescence ratio: 1.07 ± 0.036 for the first, 0.9962 ± 0.0026 for the second.

TGCGTCAGCC and GGAGTTGGAT are within error of each other in switch fluorescence ratio: 1.04 ± 0.12 for the first, 0.98205 ± 0.00015 for the second.

CGCCAAATTT and TTCAAAGATG are within error of each other in switch fluorescence ratio: 1.07 ± 0.1 for the first, 0.9743 ± 0.0021 for the second.

CTTGGGGGCG and TTTCGGGTTT are within error of each other in switch fluorescence ratio: 1.01 ± 0.056 for the first, 0.989 ± 0.028 for the second.

CTGTAAGGCG and TAAATTTTTT are within error of each other in switch fluorescence ratio: 1.05 ± 0.025 for the first, 0.996 ± 0.032 for the second.

GACTTTAGGG and GGCTGAAAGT are within error of each other in switch fluorescence ratio: 1.02 ± 0.065 for the first, 0.991 ± 0.016 for the second.

TAAGTGGGTA and TTCTGGTGCA are within error of each other in switch fluorescence ratio: 0.991 ± 0.011 for the first, 1.02 ± 0.047 for the second.

TTAACGATGA and AAGAGGGGT are within error of each other in switch fluorescence ratio: 1.01 ± 0.044 for the first, 0.9904 ± 0.0048 for the second.

ATATTAGGGT and TCGGCTTTGG are within error of each other in switch fluorescence ratio: 1.01 ± 0.042 for the first, 0.9639 ± 0.0093 for the second.

Going from TTGCAGCTTA to ATTTATAGAT, the switch fluorescence ratio falls from 1.05 ± 0.035 to 0.979 ± 0.028.

First: ACTATTGGTG
Second: GGACCGTTTT
The switch fluorescence ratio of the first is higher: 1.12 ± 0.035 for the first, 0.998 ± 0.016 for the second.

AACGTTCGCC and GTTGAGTATA are within error of each other in switch fluorescence ratio: 0.987 ± 0.032 for the first, 1.01 ± 0.033 for the second.

First: CGCTCACGGT
Second: AAAGGGAAT
The switch fluorescence ratio of the first is higher: 1.066 ± 0.0026 for the first, 1.02 ± 0.021 for the second.

GAGATCGTCG and TGTAAGTCTT are within error of each other in switch fluorescence ratio: 0.993 ± 0.01 for the first, 0.966 ± 0.032 for the second.

TTCGATGCGG and TAGATGTCCG are within error of each other in switch fluorescence ratio: 1.02 ± 0.036 for the first, 0.922 ± 0.098 for the second.

CTGAGGGGAT and GGCTTTTACG are within error of each other in switch fluorescence ratio: 1.1 ± 0.047 for the first, 1.03 ± 0.042 for the second.

AAAGGGCATG and CAATGGGGGG are within error of each other in switch fluorescence ratio: 1 ± 0.011 for the first, 1.02 ± 0.03 for the second.

First: TAGCTTCAC
Second: GGTAGGGGTC
The switch fluorescence ratio of the first is higher: 1.142 ± 0.0084 for the first, 1.01 ± 0.056 for the second.

AATTTGGTAA and TAAAGTTAGA are within error of each other in switch fluorescence ratio: 0.999 ± 0.019 for the first, 0.989 ± 0.012 for the second.

GCGGTAGTTT and CAGGGGAAAC are within error of each other in switch fluorescence ratio: 0.9974 ± 0.0066 for the first, 1.02 ± 0.077 for the second.

TTTTTTGGCA and TTGCAGGGGG are within error of each other in switch fluorescence ratio: 0.982 ± 0.035 for the first, 0.998 ± 0.027 for the second.

ATGAGACAGA and GGAAGTATTA are within error of each other in switch fluorescence ratio: 0.999 ± 0.049 for the first, 0.966 ± 0.017 for the second.

AGTGCCCAGG and ATGAAATAAA are within error of each other in switch fluorescence ratio: 2.4 ± 1.6 for the first, 0.9835 ± 0.0022 for the second.

GTGGAGGGGA and GGGGGGTT are within error of each other in switch fluorescence ratio: 1.01 ± 0.043 for the first, 0.9904 ± 0.005 for the second.

TGAGTGAGGT and TTATGGTTCG are within error of each other in switch fluorescence ratio: 0.959 ± 0.016 for the first, 0.954 ± 0.013 for the second.

Compared with TTTTATCCGT, AATGAAAATG is lower in switch fluorescence ratio: 1.06 ± 0.066 for the first, 0.9804 ± 0.0089 for the second.

CGGGAACGGA and GTTATAGTGG are within error of each other in switch fluorescence ratio: 0.984 ± 0.033 for the first, 0.981 ± 0.01 for the second.

First: CTTAGATGGT
Second: GATAGAATGA
The switch fluorescence ratio of the first is lower: 0.975 ± 0.015 for the first, 1.014 ± 0.0096 for the second.

First: CATGATTATG
Second: TATAAAAATT
The switch fluorescence ratio of the first is lower: 0.972 ± 0.012 for the first, 1.02 ± 0.025 for the second.

AATAGGGACC and CGGGGGGCCT are within error of each other in switch fluorescence ratio: 1.07 ± 0.089 for the first, 1.01 ± 0.028 for the second.

First: TTTAGTGGGG
Second: GGGCATATTC
The switch fluorescence ratio of the first is lower: 0.97 ± 0.01 for the first, 1.155 ± 0.0089 for the second.

ATTCCTTGTA and TAAAATTGGG are the same in switch fluorescence ratio: 0.989 ± 0.039 for the first, 0.989 ± 0.014 for the second.

TTGTAAGGAT and AATGTTGCGT are within error of each other in switch fluorescence ratio: 1.02 ± 0.013 for the first, 0.99 ± 0.028 for the second.

GGGGTTTACA and GGTAGATCGG are within error of each other in switch fluorescence ratio: 0.989 ± 0.026 for the first, 1.004 ± 0.0061 for the second.

Compared with TGGGCGTTGC, GGTAACATTT is higher in switch fluorescence ratio: 1.01 ± 0.018 for the first, 1.061 ± 0.0053 for the second.

TGGCGGCCAC and GGGCTAAAAC are within error of each other in switch fluorescence ratio: 1.04 ± 0.15 for the first, 0.971 ± 0.035 for the second.

ATGGGCAGGG and ATGGAGCGTG are within error of each other in switch fluorescence ratio: 0.9931 ± 0.0056 for the first, 0.994 ± 0.018 for the second.

Compared with ACTCAGGTGT, ATGGTTCGCG is lower in switch fluorescence ratio: 3.23 ± 0.13 for the first, 1 ± 0.015 for the second.

TTTCGGTAAA and AGGGTGGAAG are within error of each other in switch fluorescence ratio: 1.026 ± 0.0039 for the first, 0.993 ± 0.038 for the second.

CAATCATGG and ATGTTAGGAA are within error of each other in switch fluorescence ratio: 1.01 ± 0.019 for the first, 1 ± 0.0065 for the second.

First: TTAAGGTTAT
Second: TATTGACGCC
The switch fluorescence ratio of the first is lower: 1.02 ± 0.032 for the first, 1.09 ± 0.033 for the second.

TCTAAATTTA showed a switch fluorescence ratio of 1.01 ± 0.06.
